B1: FAM189A2 (parent)
chain: VAAALRYLQIFATRRSCIDESQIS
B2: PTPN9 (parent)
chain: ILFSLPPALDWDSVHVPGPHAMTI

Variants of: B1
Test: protein stability index of a GFP-peptide fusion (GPS, HEK-293T) (PSI 1-6); higher = more stable
Details: c terminus: a fixed tail appended
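Note: lentivirally expressed fusions sorted by FACS into six bins by GFP to DsRed ratio, PSI derived from sequencing read proportions per bin multiplied by bin number.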

Protein stability index of substitutions, site by site:
S24: M 2.07 | K 1.16 | Q 2.04 | F 3.22 | Y 1.78 | H 2.29 | T 2.85 | C 3.79 | R 3.04 | E 1.52 | P 4.3 | I 2.9 | A 2.76 | G 2.54
Q22: W 3.61 | Y 1.16 | C 4.63 | E 2.15 | D 2.32 | P 2.26 | T 1.07 | V 2.87 | N 1.77 | H 2.61 | F 2.04 | S 2.22 | G 3 | K 2.53
S21: I 4.41 | E 2.91 | G 1.83 | T 2.03 | W 2.67 | C 1.98 | N 1.73 | L 2.45 | D 2.28 | M 3.11 | Y 4.49 | H 2.45 | P 1.97 | R 2.78 | K 2.61 | Q 2.85
T13: H 2.75 | R 1.51 | M 3.45 | A 1.71 | F 2.78 | G 1.72 | S 1.76 | D 1.52 | K 2.61 | E 2.07 | P 2.29 | N 1.99 | V 2.99 | Q 2.08
D19: L 3.03 | M 3.73 | E 2.01 | Q 1.13 | C 3.29 | N 2.04 | I 2.5 | W 4.35 | K 3.22 | Y 4.69 | G 2.56 | P 1.77 | R 2.05 | A 2.45 | T 2.36 | F 1.75 | V 3.57
S16: G 1.41 | E 1.79 | L 2.4 | I 1.5 | N 1.57 | Q 1.79 | M 3.14 | A 3.14 | V 2.01 | K 2.15 | D 1.8 | T 2.29 | W 2.37 | C 1.87
I23: Y 3.27 | P 2.46 | T 2.18 | R 1.91 | E 2.76 | A 1.24 | N 3.01 | G 1.52 | S 1.84 | H 1.69 | K 1.94 | M 1.35 | F 2.9 | C 1.73 | L 1.61 | Q 1.88 | W 1.87 | D 1.77
Y7: T 2.49 | N 1.98 | P 2.04 | H 2.25 | R 1.85 | K 1.63 | Q 2.64 | L 2.68 | V 2.4 | S 2.92 | M 2.22 | F 3.33 | G 2.02 | I 1.99
R15: D 1.88 | N 1.59 | K 2.62 | M 1.28 | Q 1.67 | S 1.99 | C 2.03 | H 1.94 | Y 2.55 | F 2.52 | V 2.81 | T 2.69 | L 1.35 | E 2.13 | I 1.77 | A 2.44 | P 1.52
C17: E 1.71 | I 2.44 | M 2.58 | Y 3.8 | L 1.58 | S 1.74 | K 1.89 | R 1.23 | H 1.27 | P 2.05 | D 1.9 | T 2.17 | A 1.72 | V 1.27 | G 3.03 | Q 2.5
Q9: R 2.24 | I 3.15 | M 5.39 | T 3.26 | E 3.07 | K 1.7 | D 2.94 | L 2.47 | P 2.14 | N 1.81 | W 2.67 | C 3.59 | V 2.85 | A 2.72
I10: V 1.69 | R 2.55 | A 1.73 | F 1.73 | G 1.87 | K 2.73 | N 2.51 | W 2.48 | H 1.7 | Q 2.37 | S 2.19 | T 1.59 | E 2.08 | Y 2.65 | D 2.24 | C 1.72 | P 2.77 | M 2.68
L8: Y 3.39 | Q 1.6 | T 2.02 | N 2.14 | S 1.9 | P 1.68 | G 1.34 | K 1.89 | A 2.36 | D 2.44 | V 2.6 | F 2.23 | H 2.08 | I 1.98 | E 2.04 | C 2.81 | R 1.84
A12: N 1.28 | S 3.61 | K 2.13 | M 2.18 | R 2.46 | V 2.09 | D 1.97 | G 1.65 | H 2.87 | T 1.97 | P 3.67 | F 2.03 | I 3.18 | Q 2.29 | C 2.17 | Y 2.74 | L 2.85
F11: H 2.04 | P 2.1 | N 1.34 | G 1.74 | A 2.69 | K 2.03 | C 4.31 | R 2.63 | Y 2.36 | W 2.83
R14: M 1.56 | K 1.79 | S 2.38 | D 2.37 | I 3.84 | N 1.5 | F 2.54 | T 2.5 | H 3.33 | C 3.16 | E 1.12 | L 2.5 | Q 1.91 | G 1.88 | P 2.78 | Y 3.44 | A 1.61
I18: Q 1.95 | A 2.58 | K 2.7 | N 2.27 | G 2.2 | S 2.14 | H 1.52 | P 2.1 | T 1.75 | Y 2.54 | L 2.57 | C 2.3 | D 2.02 | W 4.01 | F 4.04 | V 1.89 | E 3.15
E20: Y 3.14 | A 1.65 | R 1.24 | L 3.32 | M 2.92 | G 2.34 | C 3.76 | K 3.19 | D 2.1 | N 2.85 | T 3.24 | S 2.66 | Q 2.35 | W 4.07 | P 3.3

Variants of: B2
Test: as above
Details: c terminus: a fixed tail appended

Protein stability index, by site and new letter:
F3: R 2.25 | Q 3.1 | K 1.95 | P 2.27 | H 2.03 | W 1.61 | E 1.87 | N 1.83 | T 2.38 | L 4.01 | M 1.21 | A 1.1 | D 1.77 | S 1.49 | C 2.62 | Y 2.21 | I 2.7
I1: V 3.38 | T 2.28 | C 1.64 | W 1.93 | F 1.76 | N 1.8 | A 2.03 | M 1.7 | K 2.24 | Y 2.41 | S 1.99 | Q 1.7 | P 1.93 | G 2.6 | E 1.71 | D 2.17 | L 1.85 | R 2.17 | H 1.56
S4: D 2.38 | A 2.31
L2: E 2.29 | I 3.33 | M 3.37 | W 2.54 | Q 2.47 | R 1.7 | V 2.54 | K 2.73 | C 3.86 | G 1.68 | P 1.93 | N 2.6 | T 2.62 | H 2.3 | D 1.26 | A 2.12 | F 2.06
